“Also recorded” adds a separate entry of the source. No end group written: not given here.
Key:
RIN-1056A cells = experiment: IAPP toxicity assay (alamar Blue); type: cell-based
Method: RIN-1056A cells were plated into 96 well plates at a density of 2×10^4 cells/well in Dulbecco's Modified Eagle Medium (DMEM) (Gibco-BRL) supplemented with 5% Fetal calf serum (Gibco-BRL), 100 U/ml penicillin (Gibco-BRL), and 100 U/ml streptomycin (Gibco-BRL). After an initial 24 h of culture, cells received fresh medium containing 10 μM hIAPP or rat IAPP alone, or in combination with 200 μM SNNFGA (SEQ ID NO. 11). Cells in control wells received fresh medium only. Cells were incubated with peptide at 37° C., 5% CO2, for 24 hours, after which alamar Blue ( 1/10th volume) was added to each well. Cells were incubated in the presence of alamar Blue (MEDICORP, Montreal) for a period of 8 hours, and data was collected at 2 hour intervals. The fluorescence of the samples was measured using a SpectraMAX Gemini XS Microplate Spectrofluorometer (Molecular Devices) with an excitation wavelength of […] and an emission wavelength of 590 nm. Data were collected using the SoftMax Pro 3.1 software for MacIntosh.
The toxicity of hIAPP fibrils on pancreatic β cell lines has been well documented. […] cells were incubated for 24 hours in the presence of 10 μM hIAPP alone or in the presence of the peptide SNNFGA (SEQ ID NO. 11). An alamar Blue assay was used to quantitatively measure the proliferation of the cells, and compare the cytotoxic effects of various additives to the cultures.

hIAPP 1–37 [1] = biological target: T1, hIAPP 1–37 (Homo sapiens, UniProt P10997); experiment: Sedimentation assay (tyrosine scan) of soluble versus insoluble hIAPP; type: biochemical; settings: hIAPP 11 μM with 10 fold excess (110 μM) peptide
T1 construct: Synthetic human IAPP (1–37) was purchased from BACHEM; purchased BACHEM (Torrence, Calif.); host or cells: chemical synthesis
T1 sequence (P10997 34-70): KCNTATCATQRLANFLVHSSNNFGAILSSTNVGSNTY
Method: Aliquots of lyophilized hIAPP 1–37 were dissolved in 20 mM acetate buffer (pH 6.5) to 11 μM and incubated in a total volume of 500 μl at room temperature. Tyrosine emission spectra were collected (emission wavelength 275 nm) on a Beckman DU530 spectrophotometer for each sample at time 0. Following a 24 hour incubation at room temperature, the soluble and aggregated peptides in each sample were separated by centrifugation at 16,000 g for 20 minutes, and the emission spectra were measured on the soluble fractions. The samples were then vortexed to resuspend the entire contents of each tube, and were incubated for an additional 24 hours. This process was repeated for a total of 72 hours of incubation. For co-incubation experiments, hIAPP was incubated with a 10 fold excess concentration (110 μM) of the inhibitory peptides SNNFGA (SEQ ID NO. 11), and GAILSS (SEQ ID NO. 14).
Sedimentation assays were performed to confirm the results from CD and electron microscopic analysis (FIGS. 7A and 7B) on the ability of peptides SNNFGA (SEQ ID NO. 11) and GAILSS (SEQ ID NO. 14) to inhibit IAPP fibril formation. hIAPP (11 μM) was incubated for a period of 72 hours in 20 mM acetate buffer alone, or with a 10 fold excess (110 μM) of the peptides.
A tyrosine scan was used to determine the amount of soluble hIAPP remaining in solution after a 72-hour incubation. […] Following a 24-hour incubation, the amount of soluble hIAPP had reduced to 8%. However, when hIAPP was incubated in the presence of the peptide SNNFGA (SEQ ID NO. 11), the amount of IAPP remaining in solution was approximately […], and in the presence of peptide GAILSS (SEQ ID NO. 14), more than 80% of the hIAPP remained in solution. By 48 hours, the hIAPP incubated alone was no longer soluble and was not detectable using a tyrosine scan. However, approximately 25% of the hIAPP was still measured when co-incubated with either peptide. Similarly, after 72 hours approximately 20% of the hIAPP was still soluble in the sample co-incubated with peptide SNNFGA (SEQ ID NO. 11) or GAILSS (SEQ ID NO. 14).

hIAPP 1–37 [2] = biological target: T1, hIAPP 1–37; experiment: Negative stain electron microscopy of IAPP fibril morphology and density; type: biochemical
Excerpt: (§1) FIG. 1 illustrates the sequence of the amyloid-β (Aβ) peptide and its proposed structural domains. A peptide-based approach similar to that used for Aβ (Tjernberg, et al, J Biol Chem 272:12601–12605, 1997) has been used for targeting two key domains in IAPP initially ranging from the 8–20 and 20–29 sequences as shown in FIG. 2. These peptides, as has been shown for Aβ peptides, are able to bind to the full-length IAPP peptide and alter fibrillogenesis. The peptides disrupt fibrillogenesis by disrupting the folding into the amyloidogenic β-sheet conformation, disrupting protofilament interactions, and/or interfering with side chain interactions within the folded IAPP, which are necessary for aggregation and fibril formation. The peptides that have been examined (shown in FIG. 2) were small, synthetic hexapeptides that correspond to the principal sequence domains of IAPP. […] The in vitro assays included: Circular Dichroism (CD), to look at changes in folding of the amyloidogenic β-sheet; negative stain electron microscopy (EM) to examine changes in fibril morphology and relative density; and ThT fluorescence assay which provides a quantitative assessment of fibril formation.
TEM was used for structural analysis of in vitro assembled fibrils. Aliquots (4 μl) were applied to pioloform and carbon coated grids. The samples were incubated on the grids for 3 minutes at room temperature, excess material blotted off and stained with 1% phosphotungstic acid (PTA). Excess PTA was blotted off and the sample was left to air dry. All samples were examined using a Hitachi 7000 electron microscope with an accelerating voltage of 75 kV.
In preliminary work the series of peptides were synthesized from the 20–29 domain and examined, via CD, EM and ThT fluorescence, at two molar ratios (1:10 and 1:20) in comparison to the full-length IAPP residues 1–37. The following data (FIGS. 5A to 5D, 6A to 6C and 7A to 7B) were obtained.

hIAPP 1–37 [3] = biological target: T1, hIAPP 1–37; experiment: Circular dichroism (CD) of IAPP conformational change, random coil to β-sheet; type: biochemical
Excerpt: as §1
Synthetic human IAPP (1–37) was purchased from BACHEM (Torrence, Calif.), synthetic peptides spanning the region from IAPP 8 to 20 and 19–31 (FIG. 3) were synthesized by the Peptide Synthesis Laboratory at the University of Toronto using standard FMOC (Fluoroenylmethoxycarbonyl) based solid phase peptide synthesis methodology. The peptides were purified by reverse phase HPLC using water/acetonitrile mixtures buffered with 0. 1% trifluoroacetic acid, on a POROS 20R2 column. The synthetic peptides were solubilized in […] (1 mg/ml), filtered (0.2 μm), aliquotted and lyophilized (Higham, C E., et al., FEBS Lett. 470: 55–60, 2000). Aliquots were reconstituted as required in 20 mM sodium acetate buffer pH 6.5.
CD was used to measure the peptide conformational changes associated with fibril formation. CD experiments were carried out at room temperature, and spectra (average of 5 scans) were collected using a Jasco J720 spectropolarimeter and quartz cuvettes with a path length of 1 mm. […]

[4] = 24-hour incubation, normalized to hIAPP alone at time 0

Row | amount of hIAPP remaining in solution (hIAPP 1–37 [1]; [4]) | amount of hIAPP remaining in solution (hIAPP 1–37 [1]; 48 hours) | amount of hIAPP remaining in solution (hIAPP 1–37 [1]; 72 hours) | Compound | decrease in cell viability compared to cells in culture medium alone (RIN-1056A cells; 10 μM hIAPP, 24 hours) | prevention of IAPP fibril formation (EM) (hIAPP 1–37 [2]; 10- or 20-fold molar excess) | effect on IAPP fibril morphology / density / aggregation (EM) (hIAPP 1–37 [2]; molar ratio not stated) | inhibition of normal IAPP fibrillar aggregation (EM) (hIAPP 1–37 [2]; reduced inhibitor concentrations) | inhibition of IAPP β-sheet transition and aggregation (CD) (hIAPP 1–37 [3]; 1:10 or 1:20 molar ratio (10- or 20-fold molar excess)) | inhibition of IAPP β-sheet conformational change at reduced concentrations (CD) (hIAPP 1–37 [3]; 5-fold molar excess (1:5) or 1:1 molar ratio) | effect on IAPP β-sheet formation / precipitation (CD) (hIAPP 1–37 [3]; 48-hour incubation, pH 6.5) | inhibition of IAPP β-sheet formation / fibril formation, overall statement (CD) (hIAPP 1–37 [3]; molar ratio not stated) | effect on initial random structure of IAPP (CD) (hIAPP 1–37 [3]; time 0, 1:10 or 1:20 molar ratio) | direct toxicity of the peptide to pancreatic β cells in culture (RIN-1056A cells)
1 |  |  |  | CC[C@H](C)[C@H](NC(=O)[C@H](C)NC(=O)CNC(=O)[C@H](Cc1ccccc1)NC(=O)[C@H](CC(N)=O)NC(=O)[C@H](CC(N)=O)NC(=O)[C@H](CO)NC(=O)[C@H](CO)NC(=O)[C@H](Cc1c[nH]cn1)NC(=O)[C@@H](NC(=O)[C@H](CC(C)C)NC(=O)[C@H](Cc1ccccc1)NC(=O)[C@H](CC(N)=O)NC(=O)[C@H](C)NC(=O)[C@H](CC(C)C)NC(=O)[C@H](CCCNC(=N)N)NC(=O)[C@H](CCC(N)=O)NC(=O)[C@@H](NC(=O)[C@H](C)NC(=O)[C@@H]1CSSC[C@H](NC(=O)[C@@H](N)CCCCN)C(=O)N[C@@H](CC(N)=O)C(=O)N[C@@H]([C@@H](C)O)C(=O)N[C@@H](C)C(=O)N[C@@H]([C@@H](C)O)C(=O)N1)[C@@H](C)O)C(C)C)C(=O)N[C@@H](CC(C)C)C(=O)N[C@@H](CO)C(=O)N[C@@H](CO)C(=O)N[C@H](C(=O)N[C@@H](CC(N)=O)C(=O)N[C@H](C(=O)NCC(=O)N[C@@H](CO)C(=O)N[C@@H](CC(N)=O)C(=O)N[C@H](C(=O)N[C@@H](Cc1ccc(O)cc1)C(N)=O)[C@@H](C)O)C(C)C)[C@@H](C)O [hIAPP, reference compound] | 35–40% |  |  |  |  |  |  |  |  | 
2 | more than 80% | approximately 25% | approximately 20% | GAILSS |  | did not completely prevent fibril formation | caused a disruption in IAPP fibrillar structure; also recorded: fibrils formed were less numerous; also recorded: absence of fibrillar aggregates which could act as seeds | effective inhibitors of normal IAPP fibrillar aggregation | very strong inhibitors of IAPP β-sheet transition; also recorded: majority of IAPP in these samples was maintained in a random conformation | very strong inhibitor; also recorded: capable of maintaining the majority of hIAPP in a random coil conformation | able to prevent the attenuation of signal due to precipitation of IAPP | greatest inhibition of IAPP fibril formation | had no effect on the initial random structure of IAPP | 
3 | approximately 15% | approximately 25% | approximately 20% | SNNFGA [SNNFGA] |  |  |  |  |  |  |  |  |  | not directly toxic

Source: US7217694B2, “Inhibitors of IAPP fibril formation and uses thereof” (The Governing Counsel of the University of Toronto, priority 2000, dated 2007)
